Data set [1] in a line: survival on 9.125 mM tBHP, N2 background. The conditions noted are these: glycan lost; control: N2 expressing SKN-1B/C::GFP.
Data set [2] can be described thus: worm lifespan at 20 °C, N2 background. The conditions noted are these: glycan lost; control: N2 expressing SKN-1B/C::GFP.
A short description of data set [3]: survival on 9.125 mM tBHP, skn-1(zu67) background. Particulars: glycan lost; control: skn-1(zu67) expressing SKN-1B/C::GFP.
A short description of data set [4]: GFP scoring of intestinal nuclei, gsk-3 RNAi. The conditions noted are these: glycan lost, control: SKN-1B/C::GFP worms.
A short description of data set [5]: GFP scoring of intestinal nuclei, tBHP.
The nature of data set [6]: in vitro kinase assay, anti-phosphoserine blot. The conditions noted are these: glycan lost; control: wild type GST-SKN-1(321–623aa) co-expressed with HIS-OGT-1.
Data set [7] can be described thus: GFP scoring of intestinal nuclei, oga-1 background. The conditions noted are these: glycan lost; control: SKN-1B/C::GFP in oga-1(ok1207).
A short description of data set [8]: worm lifespan at 20 °C, skn-1(zu67) background. The conditions noted are these: glycan lost; control: skn-1(zu67) expressing SKN-1B/C::GFP.
Data set [9] is described as follows: GFP scoring of intestinal nuclei, normal condition. The conditions noted are these: control: N2 expressing SKN-1B/C::GFP, untreated.
Data set [10] in a line: SKN-1 expression in ASI neurons. Particulars: control: wild type worms.
Data set [11] in a line: anti-phospho-SKN-1(Ser483) blot. The conditions noted are these: glycan gained; control: wild type worms.

B1: SKN-1: S470A/T493A (protein)
parent chain: MGGSSRRQRSTSATRRDDKRRRRQCFSSVADDEEETTSIYGVSSIFIWILATSSLILVISSPSSNTSIQSSSYDRITTKHLLDNISPTFKMYTDSNNRNFDEVNHQHQQEQDFNGQSKYDYPQFNRPMGLRWRDDQRMMEYFMSNGPVETVPVMPILTEHPPASPFGRGPSTERPTTSSRYEYSSPSLEDIDLIDVLWRSDIAGEKGTRQVAPADQYECDLQTLTEKSTVAPLTAEENARYEDLSKGFYNGFFESFNNNQYQQKHQQQQREQIKTPTLEHPTQKAELEDDLFDEDLAQLFEDVSREEGQLNQLFDNKQQHPVINNVSLSEGIVYNQANLTEMQEMRDSCNQVSISTIPTTSTAQPETLFNVTDSQTVEQWLPTEVVPNDVFPTSNYAYIGMQNDSLQAVVSNGQIDYDHSYQSTGQTPLSPLIIGSSGRQQQTQTSPGSVTVTATATQSLFDPYHSQRHSFSDCTTDSSSTCSRLSSESPRYTSESSTGTHESRFYGKLAPSSGSRYQRSSSPRSSQSSIKIARVVPLASGQRKRGRQSKDEQLASDNELPVSAFQISEMSLSELQQVLKNESLSEYQRQLIRKIRRRGKNKVAARTCRQRRTDRHDKMSHYI
Take B1: the “other: oxidative stress resistance conferred by transgene” value in data set [1] and in data set [3] was “abolishes” in each case. The “other: lifespan extension by transgene” value in data set [2] and in data set [8] was “abolishes” each time. For the same protein, the localisation_or_trafficking result is recorded as “decreases” in data set [4]; “decreases” in data set [5] (glycan lost, control: SKN-1B/C::GFP in N2, tBHP-treated); “decreases” in data set [7]. Further, in [6], the “other: phosphorylation by GSK-3” value was “increases”.

B2: SKN-1: T493A (protein)
parent chain: MGGSSRRQRSTSATRRDDKRRRRQCFSSVADDEEETTSIYGVSSIFIWILATSSLILVISSPSSNTSIQSSSYDRITTKHLLDNISPTFKMYTDSNNRNFDEVNHQHQQEQDFNGQSKYDYPQFNRPMGLRWRDDQRMMEYFMSNGPVETVPVMPILTEHPPASPFGRGPSTERPTTSSRYEYSSPSLEDIDLIDVLWRSDIAGEKGTRQVAPADQYECDLQTLTEKSTVAPLTAEENARYEDLSKGFYNGFFESFNNNQYQQKHQQQQREQIKTPTLEHPTQKAELEDDLFDEDLAQLFEDVSREEGQLNQLFDNKQQHPVINNVSLSEGIVYNQANLTEMQEMRDSCNQVSISTIPTTSTAQPETLFNVTDSQTVEQWLPTEVVPNDVFPTSNYAYIGMQNDSLQAVVSNGQIDYDHSYQSTGQTPLSPLIIGSSGRQQQTQTSPGSVTVTATATQSLFDPYHSQRHSFSDCTTDSSSTCSRLSSESPRYTSESSTGTHESRFYGKLAPSSGSRYQRSSSPRSSQSSIKIARVVPLASGQRKRGRQSKDEQLASDNELPVSAFQISEMSLSELQQVLKNESLSEYQRQLIRKIRRRGKNKVAARTCRQRRTDRHDKMSHYI
Regarding B2, the “other: phosphorylation by GSK-3” value in [6] is “increases”.

B3: SKN-1: ogt-1(ok1474) (protein)
parent chain: MGGSSRRQRSTSATRRDDKRRRRQCFSSVADDEEETTSIYGVSSIFIWILATSSLILVISSPSSNTSIQSSSYDRITTKHLLDNISPTFKMYTDSNNRNFDEVNHQHQQEQDFNGQSKYDYPQFNRPMGLRWRDDQRMMEYFMSNGPVETVPVMPILTEHPPASPFGRGPSTERPTTSSRYEYSSPSLEDIDLIDVLWRSDIAGEKGTRQVAPADQYECDLQTLTEKSTVAPLTAEENARYEDLSKGFYNGFFESFNNNQYQQKHQQQQREQIKTPTLEHPTQKAELEDDLFDEDLAQLFEDVSREEGQLNQLFDNKQQHPVINNVSLSEGIVYNQANLTEMQEMRDSCNQVSISTIPTTSTAQPETLFNVTDSQTVEQWLPTEVVPNDVFPTSNYAYIGMQNDSLQAVVSNGQIDYDHSYQSTGQTPLSPLIIGSSGRQQQTQTSPGSVTVTATATQSLFDPYHSQRHSFSDCTTDSSSTCSRLSSESPRYTSESSTGTHESRFYGKLAPSSGSRYQRSSSPRSSQSSIKIARVVPLASGQRKRGRQSKDEQLASDNELPVSAFQISEMSLSELQQVLKNESLSEYQRQLIRKIRRRGKNKVAARTCRQRRTDRHDKMSHYI
With B3, the localisation_or_trafficking result in [5] (glycan lost, control: N2 expressing SKN-1B/C::GFP, tBHP-treated) is “decreases”; in [9] (glycan lost), “no change”.

B4: SKN-1: without HIS-OGT-1 (protein)
parent chain: MGGSSRRQRSTSATRRDDKRRRRQCFSSVADDEEETTSIYGVSSIFIWILATSSLILVISSPSSNTSIQSSSYDRITTKHLLDNISPTFKMYTDSNNRNFDEVNHQHQQEQDFNGQSKYDYPQFNRPMGLRWRDDQRMMEYFMSNGPVETVPVMPILTEHPPASPFGRGPSTERPTTSSRYEYSSPSLEDIDLIDVLWRSDIAGEKGTRQVAPADQYECDLQTLTEKSTVAPLTAEENARYEDLSKGFYNGFFESFNNNQYQQKHQQQQREQIKTPTLEHPTQKAELEDDLFDEDLAQLFEDVSREEGQLNQLFDNKQQHPVINNVSLSEGIVYNQANLTEMQEMRDSCNQVSISTIPTTSTAQPETLFNVTDSQTVEQWLPTEVVPNDVFPTSNYAYIGMQNDSLQAVVSNGQIDYDHSYQSTGQTPLSPLIIGSSGRQQQTQTSPGSVTVTATATQSLFDPYHSQRHSFSDCTTDSSSTCSRLSSESPRYTSESSTGTHESRFYGKLAPSSGSRYQRSSSPRSSQSSIKIARVVPLASGQRKRGRQSKDEQLASDNELPVSAFQISEMSLSELQQVLKNESLSEYQRQLIRKIRRRGKNKVAARTCRQRRTDRHDKMSHYI
Turning to B4, the “other: phosphorylation by GSK-3” value in data set [6] is on record as “increases”.

B5: SKN-1: oga-1(ok1207) (protein)
parent chain: MGGSSRRQRSTSATRRDDKRRRRQCFSSVADDEEETTSIYGVSSIFIWILATSSLILVISSPSSNTSIQSSSYDRITTKHLLDNISPTFKMYTDSNNRNFDEVNHQHQQEQDFNGQSKYDYPQFNRPMGLRWRDDQRMMEYFMSNGPVETVPVMPILTEHPPASPFGRGPSTERPTTSSRYEYSSPSLEDIDLIDVLWRSDIAGEKGTRQVAPADQYECDLQTLTEKSTVAPLTAEENARYEDLSKGFYNGFFESFNNNQYQQKHQQQQREQIKTPTLEHPTQKAELEDDLFDEDLAQLFEDVSREEGQLNQLFDNKQQHPVINNVSLSEGIVYNQANLTEMQEMRDSCNQVSISTIPTTSTAQPETLFNVTDSQTVEQWLPTEVVPNDVFPTSNYAYIGMQNDSLQAVVSNGQIDYDHSYQSTGQTPLSPLIIGSSGRQQQTQTSPGSVTVTATATQSLFDPYHSQRHSFSDCTTDSSSTCSRLSSESPRYTSESSTGTHESRFYGKLAPSSGSRYQRSSSPRSSQSSIKIARVVPLASGQRKRGRQSKDEQLASDNELPVSAFQISEMSLSELQQVLKNESLSEYQRQLIRKIRRRGKNKVAARTCRQRRTDRHDKMSHYI
Turning to B5, the localisation_or_trafficking entry in data set [5] (glycan gained, control: N2 expressing SKN-1B/C::GFP, tBHP-treated) is listed as “increases”; in data set [9] (glycan gained), “increases”.

B6: SKN-1: ogt-1 loss (protein)
parent chain: MGGSSRRQRSTSATRRDDKRRRRQCFSSVADDEEETTSIYGVSSIFIWILATSSLILVISSPSSNTSIQSSSYDRITTKHLLDNISPTFKMYTDSNNRNFDEVNHQHQQEQDFNGQSKYDYPQFNRPMGLRWRDDQRMMEYFMSNGPVETVPVMPILTEHPPASPFGRGPSTERPTTSSRYEYSSPSLEDIDLIDVLWRSDIAGEKGTRQVAPADQYECDLQTLTEKSTVAPLTAEENARYEDLSKGFYNGFFESFNNNQYQQKHQQQQREQIKTPTLEHPTQKAELEDDLFDEDLAQLFEDVSREEGQLNQLFDNKQQHPVINNVSLSEGIVYNQANLTEMQEMRDSCNQVSISTIPTTSTAQPETLFNVTDSQTVEQWLPTEVVPNDVFPTSNYAYIGMQNDSLQAVVSNGQIDYDHSYQSTGQTPLSPLIIGSSGRQQQTQTSPGSVTVTATATQSLFDPYHSQRHSFSDCTTDSSSTCSRLSSESPRYTSESSTGTHESRFYGKLAPSSGSRYQRSSSPRSSQSSIKIARVVPLASGQRKRGRQSKDEQLASDNELPVSAFQISEMSLSELQQVLKNESLSEYQRQLIRKIRRRGKNKVAARTCRQRRTDRHDKMSHYI
Consider B6, for which the expression_or_secretion entry in data set [10] (glycan lost) is reported as “no change”.

B7: SKN-1: oga-1 loss (protein)
parent chain: MGGSSRRQRSTSATRRDDKRRRRQCFSSVADDEEETTSIYGVSSIFIWILATSSLILVISSPSSNTSIQSSSYDRITTKHLLDNISPTFKMYTDSNNRNFDEVNHQHQQEQDFNGQSKYDYPQFNRPMGLRWRDDQRMMEYFMSNGPVETVPVMPILTEHPPASPFGRGPSTERPTTSSRYEYSSPSLEDIDLIDVLWRSDIAGEKGTRQVAPADQYECDLQTLTEKSTVAPLTAEENARYEDLSKGFYNGFFESFNNNQYQQKHQQQQREQIKTPTLEHPTQKAELEDDLFDEDLAQLFEDVSREEGQLNQLFDNKQQHPVINNVSLSEGIVYNQANLTEMQEMRDSCNQVSISTIPTTSTAQPETLFNVTDSQTVEQWLPTEVVPNDVFPTSNYAYIGMQNDSLQAVVSNGQIDYDHSYQSTGQTPLSPLIIGSSGRQQQTQTSPGSVTVTATATQSLFDPYHSQRHSFSDCTTDSSSTCSRLSSESPRYTSESSTGTHESRFYGKLAPSSGSRYQRSSSPRSSQSSIKIARVVPLASGQRKRGRQSKDEQLASDNELPVSAFQISEMSLSELQQVLKNESLSEYQRQLIRKIRRRGKNKVAARTCRQRRTDRHDKMSHYI
As to B7, in [10] (glycan gained), the expression_or_secretion entry is reported as “no change”. Further, the “other: Ser483 phosphorylation” value in data set [11] is reported as “decreases”.

Values taken from paper PMC5341102.
